Measurements reported in article PMC12744750 (Plant Communications, 2025).
Each block holds one molecule with its values, some of them ahead of it. Ends that are not written are not given here.

T1: ETR1 1-307 (Arabidopsis thaliana)
T1 chain: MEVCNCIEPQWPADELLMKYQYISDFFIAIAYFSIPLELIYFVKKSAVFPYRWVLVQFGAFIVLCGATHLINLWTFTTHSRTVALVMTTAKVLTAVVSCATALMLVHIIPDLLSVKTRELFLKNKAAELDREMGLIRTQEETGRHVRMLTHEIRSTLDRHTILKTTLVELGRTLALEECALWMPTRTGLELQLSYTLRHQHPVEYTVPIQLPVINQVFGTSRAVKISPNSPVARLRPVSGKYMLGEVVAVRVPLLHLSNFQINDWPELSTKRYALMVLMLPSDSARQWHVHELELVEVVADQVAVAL

T2: ETR1 1-407 (Arabidopsis thaliana)
T2 chain: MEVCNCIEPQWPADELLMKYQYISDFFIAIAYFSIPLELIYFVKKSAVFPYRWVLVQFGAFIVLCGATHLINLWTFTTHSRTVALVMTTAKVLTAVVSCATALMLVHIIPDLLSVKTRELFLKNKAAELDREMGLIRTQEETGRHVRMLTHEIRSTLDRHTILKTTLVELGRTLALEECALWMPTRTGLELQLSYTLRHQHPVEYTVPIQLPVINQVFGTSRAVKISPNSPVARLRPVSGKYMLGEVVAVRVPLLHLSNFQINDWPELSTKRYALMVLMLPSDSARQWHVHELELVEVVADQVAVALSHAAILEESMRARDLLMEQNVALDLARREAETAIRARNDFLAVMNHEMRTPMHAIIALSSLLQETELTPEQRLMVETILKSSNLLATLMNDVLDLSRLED

T3: ETR1 1-598 (Arabidopsis thaliana)
T3 chain: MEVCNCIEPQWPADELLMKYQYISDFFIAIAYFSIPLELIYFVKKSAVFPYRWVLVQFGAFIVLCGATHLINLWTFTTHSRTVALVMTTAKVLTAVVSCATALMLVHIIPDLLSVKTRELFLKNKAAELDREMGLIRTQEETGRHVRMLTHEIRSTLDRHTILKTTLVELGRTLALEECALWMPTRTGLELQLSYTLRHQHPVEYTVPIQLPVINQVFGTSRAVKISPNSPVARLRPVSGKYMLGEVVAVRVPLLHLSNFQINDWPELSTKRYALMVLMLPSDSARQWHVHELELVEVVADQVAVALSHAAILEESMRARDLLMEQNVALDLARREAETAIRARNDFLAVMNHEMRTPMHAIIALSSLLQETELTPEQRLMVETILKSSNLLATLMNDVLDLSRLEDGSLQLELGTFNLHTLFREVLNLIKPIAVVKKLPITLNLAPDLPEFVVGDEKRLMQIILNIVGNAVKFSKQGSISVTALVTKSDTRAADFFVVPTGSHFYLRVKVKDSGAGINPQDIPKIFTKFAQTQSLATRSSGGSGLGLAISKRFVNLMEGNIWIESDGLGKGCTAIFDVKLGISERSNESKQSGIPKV

T4: ETR1 1-157 (Arabidopsis thaliana)
T4 chain: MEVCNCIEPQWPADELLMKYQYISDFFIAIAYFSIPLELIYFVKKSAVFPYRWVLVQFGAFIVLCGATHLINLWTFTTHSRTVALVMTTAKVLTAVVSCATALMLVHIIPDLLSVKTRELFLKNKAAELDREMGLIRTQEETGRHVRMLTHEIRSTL

B1: ETR1 with a C-terminal HA tag (ETR1:HA), pro35S::ETR1:HA (receptor, Arabidopsis, UniProt P49333 1-738, looked up)
chain: MEVCNCIEPQWPADELLMKYQYISDFFIAIAYFSIPLELIYFVKKSAVFPYRWVLVQFGAFIVLCGATHLINLWTFTTHSRTVALVMTTAKVLTAVVSCATALMLVHIIPDLLSVKTRELFLKNKAAELDREMGLIRTQEETGRHVRMLTHEIRSTLDRHTILKTTLVELGRTLALEECALWMPTRTGLELQLSYTLRHQHPVEYTVPIQLPVINQVFGTSRAVKISPNSPVARLRPVSGKYMLGEVVAVRVPLLHLSNFQINDWPELSTKRYALMVLMLPSDSARQWHVHELELVEVVADQVAVALSHAAILEESMRARDLLMEQNVALDLARREAETAIRARNDFLAVMNHEMRTPMHAIIALSSLLQETELTPEQRLMVETILKSSNLLATLMNDVLDLSRLEDGSLQLELGTFNLHTLFREVLNLIKPIAVVKKLPITLNLAPDLPEFVVGDEKRLMQIILNIVGNAVKFSKQGSISVTALVTKSDTRAADFFVVPTGSHFYLRVKVKDSGAGINPQDIPKIFTKFAQTQSLATRSSGGSGLGLAISKRFVNLMEGNIWIESDGLGKGCTAIFDVKLGISERSNESKQSGIPKVPAIPRHSNFTGLKVLVMDENGVSRMVTKGLLVHLGCEVTTVSSNEECLRVVSHEHKVVFMDVCMPGVENYQIALRIHEKFTKQRHQRPLLVALSGNTDKSTKEKCMSFGLDGVLLKPVSLDNIRDVLSDLLEPRVLYEGM
notes: the ETR1 cDNA in pEarlyGate301; also called ETHYLENE RESPONSE 1; source: N. benthamiana leaves, transient expression by Agrobacterium infiltration, in protein extract; not shown: HA, C-terminal, kept
B2: PLS linked to a C-terminal GFP (PLS:GFP), pro35S::PLS:GFP (peptide, UniProt Q8LLV8 1-36, looked up)
chain: MKPRLCFNFRRRSISPCYISISYLLVAKLFKLFKIH-{GFP}
modifications: cysteine pairing not given here
notes: POLARIS (PLS) peptide of Arabidopsis thaliana, gene AT4G39403; the PLS gene without the stop codon (printed as 105 bp) in pEarlyGate103; source: N. benthamiana leaves, transient expression by Agrobacterium infiltration, in protein extract; not shown: GFP, C-terminal, kept

Key:
[1] = test system: pPLS::GUS; assay: pPLS::GUS expression in root tips after hormone treatment; assay type: in vivo, Arabidopsis; details: 10 µM ACC plus 10 μM 2,4-D
Text: Figure S15. The link between auxi n and et hyl ene si gnal l i ng ef f ect s on PLS transcription, and downstream ef f ect s on et hyl ene responses.
(A) Ant agoni sm between auxi n and et hyl ene on PLS expressi on.
Auxin posit ively regulates PLS gene transcription, whi l e ACC (ethylene pr ecur sor ) […]
Lef t upper panel: pPLS::GUS […]
expr ession in the Arabidopsis root tip under standard gr owt h conditions. Lef t lower panel: pPLS::PLS:GFP expr ession in the Arabidopsis root tip under standard gr owt h conditions.
Ri ght panel: pPLS::GUS expr ession in root tips treated wi t h 10 μM 2,4-D, showing ect opic […]
10 μM 2,4-D plus 10 μm ACC, showing the ant agonism of the inductive eff ect of 2,4-D on PLS::GUS expr ession. Images ar e representative of 10 independently gr own roots. […]

[2] = test system: pPLS::PLS:GFP; assay: PLS:GFP fluorescence in root tip after ACC treatment; assay type: in vivo, Arabidopsis; details: 0, 1 or 10 μM ACC, 2 or 24 hours, n = 17
Text: Figur e S15. The link between auxin and ethylene signalling effects on PLS transcription, and downstr eam effects on […]
in the root tip after ACC treatment. […]
Laser settings were mai nt ai ned at 21% 488 nm 20 mW, 970 V gain.
Images are representative of 10 independetly grown roots. Scale bars […]
Lower panel: Quanti fi cati on of PLS-GFP fluorescence after ACC treatment, detected in seedlings expressing the pPLS::PLS:GFP construct. Seedling root tips at seven d.a.g were imaged by CLSM after treatment with 0, 1 or 10 μM ACC for either 2 or 24 hours.
Fl uorescence intensity in each root was measured using ImageJ and the mean intensity for each treatment was calculated. Error bars show
± 1 standard error, n = 17.

[3] = biological target: T1, ETR1 1-307; assay: MST
[4] = biological target: T2, ETR1 1-407; assay: MST
[5] = biological target: T3, ETR1 1-598; assay: MST
[6] = biological target: T4, ETR1 1-157; assay: MST
[7] = biological target: B2; assay: co-IP; anti-GFP beads on protein extract of N. benthamiana leaves co-expressing PLS:GFP and ETR1:HA; blot with anti-HA; with or without EDTA; details: partners not purified
[8] = biological target: B1; assay: co-IP; anti-HA beads on protein extract of N. benthamiana leaves co-expressing ETR1:HA and PLS:GFP or GFP, 3 days after infiltration; blot with anti-GFP; with 0.5 μM CuSO4 or 2 mM EDTA added to the extract; details: partners not purified

Molecule: NC1(C(=O)O)CC1 [ACC, 1-aminocyclopropane-1-carboxylic acid]
- effect on auxin-induced PLS expression [1]: ant agonizes the inductive eff ect s of auxin
- expression of PLS:GFP in root tip [2]: downr egulated

- Kd [3]: 1.79 µM
- Kd [4]: 1.65 µM
- Kd [5]: 2.92 µM
- Kd [6]: 1.52 µM
Molecule: MKPRLCFNFRRRSISPCYISISYLLVAKLFKLFKIH (cysteine pairing not given here; also: fluorescently labelled) [synthetic full-length POLARIS (PLS) peptide, PLS(FL)]

Molecule: B1
- fold co-precipitated with 0.5 μM copper sulfate against 2 mM EDTA [7]: ~3 fold

Molecule: B2
- fold co-precipitated with 0.5 μM copper sulfate against 2 mM EDTA [8]: ~3 fold
